± gives the uncertainty stated by the source.
Assay: amyloid nucleation score (Sup35N fusion, yeast selection) (log enrichment); library NNK1; higher = more nucleation; inactive = no reads after selection
Procedure, shortened: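 Three technical output replicates were used for random libraries. Psi-negative yeast expressing peptides of 20 random codons fused to Sup35N were induced with 100 μM copper sulfate for 24 hours and grown 7 days at 30°C on medium lacking adenine and uracil, and input and output plasmid inserts were Illumina-sequenced, excluding sequences with under 100 input reads. The nucleation score is the DiMSum log enrichment of output over input reads, centred on the mode score of non-aggregating sequences.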

Row | Substance | amyloid nucleation score
1 | FDGCNTKGNMSFAWSRPLGM | 0.246 ± 0.97
2 | FDNVVGYNGFMDGPGYLLYT | -0.16 ± 0.25
3 | FDPCYTHALWLFGDVKARCM | -0.083 ± 0.37
4 | FDRRLCFVG | 0.024 ± 0.52
5 | FDRWFRQGNGLVV | 0.225 ± 0.78
6 | FDSVHLRRSR | 0.701 ± 0.43
7 | FEDIRYDRKVWGICALSNCA | 0.814 ± 0.47
8 | FEKRALVSDSFYCNGVSRV | 0.082 ± 0.24
9 | FELQEYCFD | 0.923 ± 0.5
10 | FETDNIDPHGYSFEYDASPA | -0.25 ± 0.43
11 | FFCMKGKILIINALLEIDVG | 0.079 ± 0.34
12 | FFENWVYYHKCSHCYTAQYT | -0.559 ± 0.35
13 | FFESEVSDKNFGSC | -1.29 ± 2.4
14 | FFFIN | -0.391 ± 0.47
15 | FFFIQTSPLHAQYAISLVLR | -0.057 ± 0.52
16 | FFFYKPMNVEAIRDLHWPYS | 6.229 ± 0.06
17 | FFGVTYREYTWS | inactive
18 | FFIRIVCLWG | 0.659 ± 0.42
19 | FFLNQMIILSLACIGEPGQG | 5.08 ± 0.068
20 | FFNRNLMCVVLIVRT | -0.388 ± 0.47
21 | FFNYD | -0.628 ± 0.8
22 | FFQRVCK | 1.65 ± 0.31
23 | FFRGFSWRVCSSFSSLVELW | inactive
24 | FFRTSLCYDLVNSDEVDIIV | 0.411 ± 0.51
25 | FFTHCMWD | -1.05 ± 1.1

Row | Substance | amyloid nucleation score
26 | FFTKAGRPFGLTRDISVL | -0.23 ± 0.87
27 | FFWSYAYIVIRLVSTKCWY | 0.011 ± 0.28
28 | FFYMDKLLCAQSPVRIFR | 0.837 ± 0.84
29 | FGFLLHGDDDQEGIVTGRGG | 0.384 ± 0.76
30 | FGIRVVSR | 0.842 ± 0.73
31 | FGLVREVFKM | 0.171 ± 0.59
32 | FGMVGTCYRMDRWDVIAVSV | 0.44 ± 0.41
33 | FGNSCSADSNRYQIKYTMIK | 0.155 ± 0.45
34 | FGSFVFPCYAQPELIPFNLY | 0.119 ± 0.72
35 | FGSMFVRLFFGSLNKYGMVK | -0.712 ± 0.92
36 | FGSQVFTDGHMCMQSGGTWC | 0.223 ± 0.34
37 | FGTGFSLCKFFCLAMRPSDV | 5.25 ± 0.08
38 | FGTLCSGDRYVRR | -0.611 ± 0.28
39 | FGVRQVYINGNFLRCLGTKS | 0.751 ± 0.93
40 | FGVTIPQVWVEC | -0.961 ± 1.7
41 | FGWLKPR | 0.994 ± 0.49
42 | FHDLTQSCVCGSM | 0.717 ± 0.49
43 | FHFVGLSVTVVLLSFWGWNT | 0.78 ± 0.52
44 | FHGLSGMRYWTRFCMWSPAC | 1.36 ± 0.66
45 | FHICDNRLDCSLIVVANSWK | 2.65 ± 0.18
46 | FHKVLSMFMMIVLVVKTWTT | inactive
47 | FHLPALTSSLPA | 0.102 ± 0.35
48 | FHLRSCIRFSYLMTDWQAFQ | 0.69 ± 1
49 | FHYYMSFSGDGI | 0.724 ± 0.39
50 | FICFYVVSYTIMSLLFDTLG | 0.713 ± 0.92

Row | Substance | amyloid nucleation score
51 | FICGDLNCQQTSSFCFLDYS | 7.296 ± 0.051
52 | FIGVLIRSVCQSGARIV | 0.514 ± 0.17
53 | FINAYRMFWIGYCNLFSLFL | 1.38 ± 0.52
54 | FIQGLCMVFDVSYLRLS | 2.8 ± 0.15
55 | FIRSRMVWLCLMLISTIERG | 0.835 ± 0.39
56 | FIRVGLVCVLKFRSVGEAWL | -0.045 ± 0.9
57 | FITRRSLGCRFPKPKSLRIN | -0.012 ± 0.4
58 | FIVGTFLHENASLRFRIHKA | -0.011 ± 0.35
59 | FIWECGNIISVCMRIGYMKA | 1.23 ± 0.41
60 | FKASIYDISQNT | -0.459 ± 0.3
61 | FKGHRHY | 0.318 ± 0.55
62 | FKIVKSCSMFST | 0.761 ± 0.24
63 | FKLIHAVNFVYLGYAFYAFF | 1.29 ± 0.38
64 | FKNCFDSNTAGICLNHLWKR | 1.25 ± 0.63
65 | FKNLCRAVS | 0.059 ± 0.53
66 | FKNVHFRNS | -1.69 ± 1.3
67 | FKSGRDSGMRG | -1.57 ± 1.1
68 | FKVTVRVGSTMSILL | 0.223 ± 0.42
69 | FKYRVGDTSCMVCNVWYGGD | 7.552 ± 0.057
70 | FLALR | -0.249 ± 0.61
71 | FLAWRTLDEMVLCKRCDNAI | 0.291 ± 1
72 | FLEWAPSLNKLHRF | 0.768 ± 0.17
73 | FLFRRYCAEEGLVWMKIVDT | 0.864 ± 0.53
74 | FLGMAHLCHEEGVRKLGGES | 0.679 ± 0.64
75 | FLGWICICPGQYRSAGPTAL | -0.487 ± 0.43

Row | Substance | amyloid nucleation score
76 | FLHHFQCKNTSN | inactive
77 | FLKNEHSYTGWCFSTWPVRY | 1.95 ± 0.29
78 | FLLGRNFNLANSNFHSVICL | 0.24 ± 0.88
79 | FLLWKGTIDIMRWHVFASN | -0.847 ± 0.79
80 | FLMPCFMKVGFVREEPWWRR | 0.096 ± 0.78
81 | FLNCVSLVNLLRLFRVCLMP | -0.765 ± 1.5
82 | FLNLAFAVSRLGLCMWYVAF | 0.319 ± 0.87
83 | FLPQAAWCKLYLIKLLNPPL | 1.1 ± 0.98
84 | FLRKHHSIMMVFMRIQGLRM | -1.72 ± 1.7
85 | FLSEE | -0.584 ± 0.44
86 | FLSICVDSVKFVFGGVWTSQ | -0.882 ± 0.53
87 | FLSIYDTIVDCWVALVLVRG | -0.723 ± 0.91
88 | FLSRFLMVRTRSAASVSAYE | -0.204 ± 0.39
89 | FLSVFRL | -0.884 ± 1.1
90 | FLSVLNFVRIIEKEVGRNRN | 1.79 ± 0.15
91 | FLTTEYDDWVSSAFINCCGD | -0.475 ± 0.41
92 | FLVMREFMIGCVRAG | 0.186 ± 0.97
93 | FLVVETI | inactive
94 | FMDDSSLFPSI | 0.569 ± 0.58
95 | FMFLESRPSNCSTTPCKY | -0.29 ± 0.6
96 | FMPFASKCGCPN | 0.595 ± 0.41
97 | FMPTKGGQSIIGLHPLLFML | -0.577 ± 0.58
98 | FMSAV | 0.374 ± 1.2
99 | FMYWSIHDTIVLTWHDGSSL | -0.036 ± 0.65
100 | FNDHWSCRV | -0.095 ± 0.48

Row | Substance | amyloid nucleation score
101 | FNGRVDSARCPGVARARHLL | -0.846 ± 2.4
102 | FNMIVSYAFVAFIVNIKVEI | 1.99 ± 0.12
103 | FNQINQGCRGCKQRTLVPDI | 0.5 ± 0.67
104 | FNSTTTESLHAVAEGTMNPL | 0.671 ± 0.54
105 | FNVRC | 0.496 ± 0.36
106 | FNWLTTEFRW | -0.037 ± 0.36
107 | FNWSRNHGF | 0.013 ± 0.76
108 | FNYHACSNFSFSPDQPSFHC | 0.553 ± 0.45
109 | FPDNVISIIDFR | -0.235 ± 0.54
110 | FPEHVPVSVYVCYRGYGRRV | -0.589 ± 0.61
111 | FPGLTFILAGMLCMTCKIRG | 4.12 ± 0.13
112 | FPMRSWCLEACRHCRQPTFS | -0.301 ± 1.4
113 | FPWTNLSDD | 0.04 ± 0.36
114 | FPWVCIVVCERTS | 3.41 ± 0.17
115 | FQAGREKSCCAYEVGDGCLV | -1.16 ± 2.4
116 | FQCVFH | 3.88 ± 0.062
117 | FQFESHW | 1.85 ± 0.24
118 | FQPIGSMWNYRSMYVYSTLF | -0.062 ± 0.57
119 | FQVCLVLSAHVRPQRYFKSW | -0.429 ± 0.8
120 | FQVVFGYSFMNMATISCVYE | 5.03 ± 0.054
121 | FRDMYCARNIACSFLLVVAC | 1.1 ± 0.19
122 | FREVMTGSNYRPTC | 0.158 ± 0.64
123 | FRFELYRLPVSDSLMKDLQL | 0.998 ± 0.58
124 | FRFLKEASKCKPVTVMSPSW | 0.123 ± 0.7
125 | FRFRLGNFGLRFRGYPERII | 0.405 ± 0.3

Row | Substance | amyloid nucleation score
126 | FRGEVYELEIKGKILSSVFV | 0.121 ± 0.24
127 | FRGMGAS | 0.617 ± 0.62
128 | FRKLKTAYDFFHCRCPHSNA | 0.373 ± 0.78
129 | FRQFCCV | inactive
130 | FRTATWNKIGAQDRVKSISV | -1.06 ± 2.7
131 | FRTHD | 0.351 ± 0.97
132 | FRWNLQAWQEVSGAGQRAVV | -0.014 ± 0.76
133 | FSCMRWM | 0.73 ± 0.43
134 | FSCVIGFPKHRNDTLVTERA | 6.65 ± 0.067
135 | FSDMDVTQPENKDWHLEE | 1.23 ± 0.9
136 | FSHDRGYLIFQVIRGHHCFM | 0.277 ± 0.57
137 | FSHKRW | -0.479 ± 0.48
138 | FSIAASASTLFDGFVIWRF | 0.027 ± 0.5
139 | FSIRTFVIRFTLMEHLSLEL | 0.266 ± 0.52
140 | FSKFSAVVDDPVCWKRLIFL | -0.57 ± 0.53
141 | FSKLWSVWLRLCLKG | 0.334 ± 0.52
142 | FSLDSRITANLTKWEEMLVQ | -0.779 ± 0.41
143 | FSLVATGSYITLDSVLMDVL | 0.728 ± 0.44
144 | FSLYAPSTPYSSMVRIRLSD | inactive
145 | FSMTCYVWLITLAKMTRTFQ | 0.159 ± 0.73
146 | FSMWRSWNNNYSLISHSTGH | 0.367 ± 1.2
147 | FSNTCWNLKYHSNGAANFFV | 0.136 ± 0.96
148 | FSRDLLARGVDTPSVEFRSS | -0.362 ± 0.72
149 | FSRKINVYG | -0.396 ± 0.66
150 | FSSFESCCRRYSSM | 0.576 ± 0.93

Row | Substance | amyloid nucleation score
151 | FSTFVGHYLSKMKWITVVNS | 0.531 ± 0.36
152 | FSTIGCKSMAVNCSFWYWSR | 6.196 ± 0.047
153 | FSVGYDNGMDNM | 0.426 ± 0.29
154 | FSVRNSSVILEHGVWLNCQG | 0.03 ± 0.97
155 | FTCSTYNCWGVHS | 1.26 ± 0.37
156 | FTDSTRFGSYLLSSAMFPTM | -1.65 ± 2.7
157 | FTIVLELFRNFSRSKVYEDV | -0.756 ± 2.4
158 | FTLHVSFRGSDDIKSVFYCS | 3.29 ± 0.11
159 | FTLLTAPGMATHLRTGMRSR | 0.51 ± 0.56
160 | FTLSPLGCVYYDT | 0.712 ± 0.72
161 | FTMSTISCSGSDTIVID | -0.503 ± 0.25
162 | FTNNVLNINVRG | 0.253 ± 1.2
163 | FTSPLKNHHLFGFAS | -0.345 ± 0.6
164 | FVDSFVNIWLIKTFSRIVVD | 0.161 ± 0.3
165 | FVFGTFA | 0.485 ± 0.59
166 | FVKSKGWVCAGFLYIASL | 0.53 ± 0.75
167 | FVLADYVGAARVRGTTLFAE | 0.406 ± 0.53
168 | FVLSNIPVAYLANANNAFHF | 0.677 ± 0.52
169 | FVMHSSSM | -0.34 ± 0.53
170 | FVRCSAKMDLWSVLTVCSFC | 3.2 ± 0.12
171 | FVSSVGKSEQVPSTEFFCVS | 0.174 ± 1.5
172 | FVTDCLHYRRTWQLGC | 0.419 ± 0.28
173 | FVVQPYHYKSY | 0.264 ± 0.34
174 | FVVSDRGWTQALRHYPDTRM | -0.25 ± 0.34
